# Measurements reported in the DeepSol protein solubility set.
# Assay: soluble on expression in E. coli; label from the status in PepcDB or PDB records
row,Sequence,soluble on expression in E. coli
1,SSKRKRKRSVQEGENPDDGVRGSPPEDYRLGQVASSLFRGEHHSRGGTGRLASLFSSLEPQIQPVYVPVPKQTIKKTKRNEEEESTSQIERPLSQEPAKKVKAKKKHTNAEKKLADRESALASADLEEEIHQKQGQKRKNSQPGVKVADRKILDDTEDTVVSQRKKIQINQEEERLKNERTVFVGNLPVTCNKKKLKSFFKEYGQIESVRFRSLIPAEGTLSKKLAAIKRKIHPDQKNINAYVVFKEESAATQALKRNGAQIADGFRIRVDLASETSSRDKRSVFVGNLPYKVEESAIEKHFLDCGSIMAVRIVRDKMTGIGKGFGYVLFENTDSVHLALKLNNSELMGRKLRVMRSVNKEKFKQQNSNPRLKNVSKPKQGLNFTSKTAEGHPKSLFIGEKAVLLKTKKKGQKKSGRPKKQRKQK,soluble
2,SSQPDPTPEQLNKSSQFTGVMGNLRCLYDNHFVEGTNVRSTGQLLQHDLIFPIKDLKLKNYDSVKTEFNSKDLATKYKNKDVDIFGSNYYYNCYYSEGNSCKNAKKTCMYGGVTEHHRNQIEGKFPNITVKVYEDNENILSFDITTNKKQVTVQELDCKTRKILVSRKNLYEFNNSPYETGYIKFIESSGDSFWYDMMPAPGAIFDQSKYLMLYNDNKTVSSSAIAIEVHLTKK,soluble
3,SSYCKQEGKDCIIFVTKEDHEAPSNAELVEDDPNDPYEDHGLILPNGDINWNCPCLGGMASGPCGQQFKDAFSCFHYSKEEIKGSDCVENFRGMQECMQKYPELYPQEDDNDSAPSGGANTAPTDSLPASSTDSTAAAATENPATS,soluble
4,STAIDGQGKDQVIFVTKEEHETPSTVKQEEEDTNEDPKGKGLILPTGEINWDCPCLGGMASGVCGEQFKSAFTCFHFSQEEVKGSDCLEQFISMQECFHQHPELFPQDNNDLQTADPDQEHSSSISDFTTNKESDSLPTETDEIPTQLPVVS,soluble
5,STDNTTSSDLIKNVETARSTIDGLIESLGWIELNYRCERQCNWDEVCYTPSWGPSPMGMTEPGSHNEGFGTHFDESRQRLVINSKLQCININDLMVNRNH,soluble
6,STEDLLTYTLDEAERLTGSTLGFFDLISDDQSIMRSACSSNAKKDNCGHARHPIVINFKAPADVLQKKRAIIHNDHATLRHCNSKSVSHKEAIRELIVPVIRNGKVMAILEVGNKPANYDQNDIQLLNELSGVAWDIIARKHAEDSAQKTMK,not soluble
7,STQTSRVTLVGEMLPAYNEILTPEALSFLKELHENFNERRIELLQKRMKKQQKIDAGEFPKFLEETKRIREADWTIAKLPKDLEDRRVEITGPVDRKMVINALNSGAHLFMADFEDSNSPTWENAIEGQINLRDAVKGTISHKNENGKEYRLNSKTAVLIVRPRGWHLEEKHMQVDGKNMSGSLVDFGLYFFHNAKALLEKGSGPYFYLPKMESYLEARLWNDVFVFAQKYIGIPNGTIKATVLLETIHASFEMDEILYELKDHSAGLNCGRWDYIFSFLKAFRNHNEFLLPDRAQVTMTAPFMRAYSLKVIQTCHRRNAPAIGGMAAQIPIKNNPEANEAAFEKVRADKEREALDGHDGTWVAHPGLVPVAMEVFNHIMKTPNQIFRKREEIHVTEKDLLEVPVGTITEEGLRMNISVGIQYIASWLSGRGAAPIYNLMEDAATAEISRAQVWQWIRHEGGKLNDGRNITLELMEELKEEELAKIEREIGKEAFKKGRFQEATTLFTNLVRNDEFVPFLTLPGYEIL,soluble
8,STQVSQATSQPINFQVQKDGSSEKSHMDDYMQHPGKVIKQNNKYYFQTVLNNASFWKEYKFYNANNQELATTVVNDNKKADTRTINVAVEPGYKSLTTKVHIVVPQINYNHRYTTHLEFEKAIPTLADAAK,not soluble
9,SVCAEAYNPDEEEDDAESRIIHPKTDDQRNRLQEACKDILLFKNLDPEQMSQVLDAMFEKLVKEGEHVIDQGDDGDNFYVIDRGTFDIYVKCDGVGRCVGNYDNRGSFGELALMYNTPRAATITATSPGALWGLDRVTFRRIIVKNNAKKRKMYESFIESLPFLKSLEVSERLKVVDVIGTKVYNDGEQIIAQGDSADSFFIVESGEVRITMKRKGKSDIEENGAVEIARCLRGQYFGELALVTNKPRAASAHAIGTVKCLAMDVQAFERLLGPCMEIMKRNIATYEEQLVALFGTNMDIVEPTA,soluble
10,SVHPALEFSDCYSDSPDFRERLKCYENELEKTNKFLKDVIKDGNNVINTFKEYSLAVQKFSQTLQSFQFDFIGDTLTDDEMNIAESFREFAGLLQDVEEARMMLVQNASDLLIKPLEKFRKEQIGVTKERRKKFEKESEKYYSQLDKHVNLSSKKKETQLQEADEQLDKERQAFYESSVEYVYQIQQVQEKKKFDVVEPVLAFLQSILTLNNLTVEMYTFRNKGTKCNTGEIPFQKVQFCTIQVDISTFMVHFCTFKLYFCTFKIP,soluble
11,SVMYEEDFVLNSRGMKLFTCVWKPVKQEPKALLFLCHGYAMESSITMNSAATRLANAGFAVYGMDYEGHGKSEGLNGYISNFDDLVDDVSNHYSTICEREENKGKMRFLLGESMGGAVVLLLARKKPDFWDGAVLVAPMCKLADEIKPHPVVISILIKLAKFIPTWKIVPGNDIIDIAIKEPHIRNQVRENKYCYKGRPRLNTAYQLLLVSLDLEKNLHQVSIPFIVLYGEDDKVTDKSISKMLYEVASSSDKTFKLYPKMWHALLYGETNENSEIVFGDIINWLEDRATDSNGGLESQLKHKHDGFLKHK,soluble
12,SVPLVAVVSGPRAQLFACLLRLGTQQVGPLQLHTGASHAARNHYEVLVLGGGSGGITMAARMKRKVGAENVAIVEPSERHFYQPIWTLVGAGAKQLSSSGRPTASVIPSGVEWIKARVTELNPDKNCIHTDDDEKISYRYLIIALGIQLDYEKIKGLPEGFAHPKIGSNYSVKTVEKTWKALQDFKEGNAIFTFPNTPVKCAGAPQKIMYLSEAYFRKTGKRSKANIIFNTSLGAIFGVKKYADALQEIIQERNLTVNYKKNLIEVRADKQEAVFENLDKPGETQVISYEMLHVTPPMSPPDVLKTSPVADAAGWVDVDKETLQHRRYPNVFGIGDCTNLPTSKTAAAVAAQSGILDRTISVIMKNQTPTKKYDGYTSCPLVTGYNRVILAEFDYKAEPLETFPFDQSKERLSMYLMKADLMPFLYWNMMLRGYWGGPAFLRKLFHLGMS,soluble
13,SVPQISQPHFLLDGLSSQPLFNDIAAGIPSITAYSKNGLKIEFTFERSNTNPSVTVITIQASNSTELDMTDFVFQAAVPKTFQLQLLSPSSSIVPAFNTGTITQVIKVLNPQKQQLRMRIKLTYNHKGSAMQDLAEVNNFPPQSWQ,soluble
14,SYHPLLSSSAKASADGFKPLPAIELLDRASESPTTVEIAATTTSDSCSDGARSRFQRLKVVLDLDETLVCAYETSSLPAALRNQAIEAGLKWFELECLSTDKEYDGKPKINYVTVFERPGLHEFLEQLSEFADLILFTAGLEGYARPLVDRIDTRKVLTNRLYRPSTVSTQYRDHVKDLLSTSKNMCRTVIVDNNPFSFLLQPSNGIPCIAFSAGQPNDTQLLDVILPLLKQLSEEDDVRPTLYDRFRMPEWFEKQGIPPSCWKP,soluble
15,TDPDADRLGAAVRMPNGDYQVLTGNQLGSIMIHYILEAHQQAGTLPQNAAVLKSIVSSELATAIAEKCNTKMFNVLTGFKFIAEKIQQYEEDHSQTFMFGFEESYGYLVKPFVRDKDAIQALVLLAEVAAFYKKQGKTLYDGLQDIFEEFGYFEE,not soluble
16,TDPDCDRIGVLVKNKSGEYKVLTGNQTGVLLTHYIISSLKDTGKLPANGAVIKTIVTSEMTRKITEDYDMKLIDVLTGFKYIGEKIKEFEETNSNTYLFGFEESYGCLAGTFVRDKDAVVAATLVCEMALYYKNKGLSLDDALNELYEKYGF,not soluble
17,TDTDEVINLRVVETTDIHTNLMDYDYYKDKPTQKIGLARTATLVKEARAEVTNSVLVDNGDLLQGSPMGDYMADKGIEAGEVHPAYKAMNQLDYDAGNIGNHEFNYGLEFLAESINDADFPYISANVYDAKTKEHYFKPYIIKTHKLKDTAGVEHEIKVGYIGFVPPQIMVWDKKNLEGKVFARDIKETAEELVPQMKAEGADVIVAIPHSGVSTNPYKQGEENSTYYLSEVDGIDAIAFGHSHAVFPGKGFDNLQGIDNENGTINGVAAVMPGRWGSHVGVMDLTLEQKDGKWSVVKGQSEARPIFDKTNQKSLADADKGIVQALEADHKGTRDFVNQ,not soluble
18,TESGTAAQDPEALAAEIGPVKQVSLGEQIDAALAQQGEQLFNTYCTACHRLDERFIGPALRDVTKRRGPVYIMNVMLNPNGMIQRHPVMKQLVQEYGTMMTDMALSEEQARAILEYLRQVAENQ,soluble
19,TFRLVIACPDGVGIVAKVSNFLATYNGWITEASHHSDNDNGWFFMRHEIRADSLPFDLDGFRQAFAPIAREFSMEWRITDSEVKKRVVLMASKESHCLADLLHRWHSGELDCEIPCVIANHDDLRSMVEWHGIPYFHVPVDPQDKQPAFDEVSRLIDEHGADCIVLARYMQILPPDLCRKYAHQVINIHHSFLPSFIGAKPYHQASKRGVKLIGATSHYVTEELDAGPIIEQDVVRVTHRDNVEDMVRLGKDVEKLVLARGLRYHLEDRVLVH,not soluble
20,TGKVHWSDELFNIFGRDPQKSAANYEELLNYIHPDDRDFVDGIIRNSFTGKRYGIDYRIIRDNGEERTVHAEKELIFDRN,not soluble
21,THILTLTSGFHLWSHTENSGKKSKIIAVHGGPGETHESFETLPLGVPNAEITSYDQLGSWYSDQPDFSDPKLAKKYLRIEYFVNELEEVRRQLEYDKFILLGYSWGAMIALEYALKYPGNLDKLVIVGMSDRESDFTDRMKDEVAKVLSKDEAKYVFTEAKKGELDDPLFNQFMEKFYNDYYSRFSKSQSKHAIDISNYQVANYMMGTNPFHTEGMMSGWNVSDKLYRIKTPTLILVGDQDMISPKKARVMADKLPNGKLEIIPDATHVSLRDNPEYFFQQLNQFLTN,not soluble
22,TIDEINKAISSSLSRERIMETAMAQVERITGCEFVAILQAENGGLKVMSSHASGLEIPAALRPGAPLSLAGCTAWTAFRTGRSASIADLADTRKPGTVSRTLLAAGIRSLLAIPLMSRDQVKGVLLLGDTEPDKFARGETFTIEKIASQMAVALENARLYEDMR,not soluble
23,TIEIYKNKIPDGKNAGKDAILIKDNNLIKQLEDAAKKNGAESNQKQGGESNVQKEQIIGYTTTGNVREDGNHIFRVDKINDEQYDRKIIVGVTVETLEQSSTLQSEEAIVLAAPGKYKSTDKKKVTITQGPNIIGIHANEKENAETQKFVDW,soluble
24,TKDFSWNSDFIFSHAKNEVTDLRGRTRMMELVSGNGFAREGYPVRGLFSIPFAGLDEKGIPMFDINGNITSTDINFQEREKLDYLKYEGPTDPTITGSFGNVFAYKGFKLNVFMTYSFGNVVRLNPYFNYKYSDLSAMPREFKNRWTLSGDEAKTNIPAILSNPQYEANRTLYKAYNAYNYSTERIAKGDFIRMKEISLSYEFPKSWISAAKISNLSLKLQATNLFLIYADKKLNGQDPEFFNTGGVASPVPRQFTLTLRLGL,not soluble
25,TKLSPELLVKLGSEGVLAGVKDSSGDDVSFRRLVMLNKKAGSPLTLLTGHEAVVDGAFIAGADGCVPGLGNVDPAGYVRMWKAAEAGDWATVQKEQDRLAALFEIVFQPIGKVGPAAGVGSFKTALE,not soluble
